Patent publication US20200157212A1 (Pfizer, published 2020)

T1: Terbium (Tb) labeled-SNAP tagged ROBO2 expressed on HEK293 cells (Homo sapiens (Human), UniProt Q9HCK4 22-1378, terbium label on the SNAP tag)
T1 construct: also called Tb-labeled ROBO2 cells; ROBO2 expressing cells; not shown: SNAP tag
T1 sequence: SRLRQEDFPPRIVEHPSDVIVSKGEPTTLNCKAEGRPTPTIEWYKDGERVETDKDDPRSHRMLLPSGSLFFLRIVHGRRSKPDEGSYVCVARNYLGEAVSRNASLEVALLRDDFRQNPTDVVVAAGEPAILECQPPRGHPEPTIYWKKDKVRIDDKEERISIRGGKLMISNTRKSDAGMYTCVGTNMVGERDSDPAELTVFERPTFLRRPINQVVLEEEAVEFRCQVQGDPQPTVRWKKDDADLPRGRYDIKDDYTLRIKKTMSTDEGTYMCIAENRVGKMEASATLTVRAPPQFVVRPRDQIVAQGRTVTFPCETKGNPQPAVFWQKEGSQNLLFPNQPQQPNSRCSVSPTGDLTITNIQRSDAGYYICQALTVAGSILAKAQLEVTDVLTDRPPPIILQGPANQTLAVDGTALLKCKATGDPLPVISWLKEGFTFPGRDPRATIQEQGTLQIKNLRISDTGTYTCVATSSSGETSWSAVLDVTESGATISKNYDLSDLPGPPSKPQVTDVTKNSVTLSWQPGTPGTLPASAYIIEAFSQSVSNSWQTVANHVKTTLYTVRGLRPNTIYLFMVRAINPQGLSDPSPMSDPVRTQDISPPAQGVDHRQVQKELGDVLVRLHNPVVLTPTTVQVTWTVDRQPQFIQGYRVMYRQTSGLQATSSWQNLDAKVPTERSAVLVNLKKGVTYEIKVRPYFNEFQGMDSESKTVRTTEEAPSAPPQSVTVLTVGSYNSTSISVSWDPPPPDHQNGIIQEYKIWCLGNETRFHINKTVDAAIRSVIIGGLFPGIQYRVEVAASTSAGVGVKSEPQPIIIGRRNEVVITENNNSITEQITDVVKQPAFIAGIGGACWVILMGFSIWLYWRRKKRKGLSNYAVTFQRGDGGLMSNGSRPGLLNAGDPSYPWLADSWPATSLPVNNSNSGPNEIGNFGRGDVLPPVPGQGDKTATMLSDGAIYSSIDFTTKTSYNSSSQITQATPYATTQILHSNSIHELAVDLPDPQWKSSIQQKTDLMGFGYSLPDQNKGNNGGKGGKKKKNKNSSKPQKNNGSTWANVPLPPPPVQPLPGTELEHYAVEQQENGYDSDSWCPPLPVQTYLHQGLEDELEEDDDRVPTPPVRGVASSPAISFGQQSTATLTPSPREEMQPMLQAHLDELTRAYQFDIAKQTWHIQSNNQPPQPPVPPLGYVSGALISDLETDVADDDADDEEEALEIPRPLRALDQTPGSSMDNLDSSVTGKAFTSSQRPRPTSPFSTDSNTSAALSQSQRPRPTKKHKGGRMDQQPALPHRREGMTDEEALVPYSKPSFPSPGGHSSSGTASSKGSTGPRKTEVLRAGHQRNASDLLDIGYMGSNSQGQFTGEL

T2: Human ROBO2 overexpressed on HEK293 cells (human, UniProt Q9HCK4 22-1378)
T2 construct: also called ROBO2 cells; native ROBO2
T2 sequence: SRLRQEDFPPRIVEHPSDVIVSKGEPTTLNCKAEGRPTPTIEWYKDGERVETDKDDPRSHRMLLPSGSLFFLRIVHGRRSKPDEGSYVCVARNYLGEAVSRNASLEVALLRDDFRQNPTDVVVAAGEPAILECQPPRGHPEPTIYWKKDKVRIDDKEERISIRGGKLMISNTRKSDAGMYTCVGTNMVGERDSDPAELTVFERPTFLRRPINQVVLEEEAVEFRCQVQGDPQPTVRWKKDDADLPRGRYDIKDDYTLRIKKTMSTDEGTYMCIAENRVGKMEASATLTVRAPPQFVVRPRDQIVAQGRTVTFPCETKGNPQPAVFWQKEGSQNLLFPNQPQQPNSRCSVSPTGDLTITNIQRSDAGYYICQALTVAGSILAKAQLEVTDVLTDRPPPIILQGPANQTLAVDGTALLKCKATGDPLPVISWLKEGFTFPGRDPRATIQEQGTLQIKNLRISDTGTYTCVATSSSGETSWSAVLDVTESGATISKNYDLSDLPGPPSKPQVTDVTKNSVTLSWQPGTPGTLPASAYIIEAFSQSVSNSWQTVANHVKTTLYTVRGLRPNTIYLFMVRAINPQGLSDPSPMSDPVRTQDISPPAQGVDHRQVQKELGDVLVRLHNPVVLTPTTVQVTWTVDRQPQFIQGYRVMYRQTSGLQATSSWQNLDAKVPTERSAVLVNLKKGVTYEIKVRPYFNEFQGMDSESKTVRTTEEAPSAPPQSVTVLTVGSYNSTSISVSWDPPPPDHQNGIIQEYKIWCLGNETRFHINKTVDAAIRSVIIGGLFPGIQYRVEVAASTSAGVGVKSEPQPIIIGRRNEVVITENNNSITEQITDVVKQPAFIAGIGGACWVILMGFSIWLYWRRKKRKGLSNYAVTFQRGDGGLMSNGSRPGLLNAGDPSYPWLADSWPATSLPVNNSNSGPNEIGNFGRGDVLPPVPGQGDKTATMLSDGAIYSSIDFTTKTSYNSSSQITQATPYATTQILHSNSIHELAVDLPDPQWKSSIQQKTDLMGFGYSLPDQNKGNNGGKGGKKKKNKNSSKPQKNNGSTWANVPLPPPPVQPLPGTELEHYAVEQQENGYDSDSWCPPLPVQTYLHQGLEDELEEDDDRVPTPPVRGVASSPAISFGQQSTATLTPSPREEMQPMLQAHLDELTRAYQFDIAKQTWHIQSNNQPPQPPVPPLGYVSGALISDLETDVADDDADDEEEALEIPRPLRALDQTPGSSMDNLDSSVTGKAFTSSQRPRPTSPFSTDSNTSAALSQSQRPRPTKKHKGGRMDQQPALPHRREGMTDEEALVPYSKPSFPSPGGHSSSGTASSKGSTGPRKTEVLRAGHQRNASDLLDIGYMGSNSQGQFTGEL


What was measured:
[1] = target: T1, Terbium (Tb) labeled-SNAP tagged ROBO2 …; assay: HTRF competition, competitor d2-SLIT2-N, ROBO2 HEK293 cells
Method: (§1) Antibodies generated as a result of the affinity maturation campaign were screened by numerous assays for neutralization of SLIT2-N binding, selective binding to ROBO2 over ROBO1, and inhibition of SLIT2-N functional activity (see Table 2). A ROBO2-SLIT2-N homogenous time resolved fluorescence (HTRF) assay was used to identify antibodies that were capable of blocking SLIT2-N binding to ROBO2. In this assay, terbium (Tb) labeled-SNAP tagged ROBO2 expressing HEK293 cells were incubated with 5 nM d2-labeled SLIT-2N in the presence of 1 nM anti-ROBO2 antibodies for 1 hour. After incubation, fluorescence at 665 nm and 620 nm was measured on an Envision multilabel plate reader. […] Maximal signal was defined as the HTRF ratio of Tb-labeled ROBO2 cells with d2-labeled SLIT2-N in the absence of antibody, the minimum signal was defined as the HTRF ratio of Tb-labeled ROBO2 expressing HEK293 cells only. One nanomolar (nM) parental antibody, 93H2, was unable to block the HTRF assay, therefore this concentration was selected to identify clones with a higher affinity than 93H2 (Table 2, HTRF Ratio column). […] Antibodies derived from chain (Abcs series) or CDR shuffling (CTIR-2 series) were evaluated in 11-point, 5-fold dilution series with a top concentration of 1500 nM (Table 2 HTRF IC₅₀).

[2] = target: T2, Human ROBO2 overexpressed on HEK293 …; assay: flow cytometry, Geo MFI ROBO2/ROBO1 HEK293 cells, 0.1 µg/ml
Method: (§2) Binding of the antibodies was detected using a secondary fluorochrome conjugated anti-human IgG F(ab′)₂ antibody and samples were analyzed on a Fortessa cytometer (BD Biosciences). The fold ROBO2 selectivity was calculated as the geometric mean fluorescence intensity (Geo MFI) with ROBO2 cells/Geo MFI with ROBO1 cells. A fold change higher than 3 was considered to be ROBO2 specific (Table 2, Fold Selectivity). Some affinity matured clones had increased ROBO1 reactivity, for example Abcs 55, CTI-R2-10 and CTIR2-13.
(§3) HTRF assays were run with 5 nM d2-labeled SLIT2-N and antibodies were added at 1 nM. […] Antibodies derived from chain (Abcs series) or CDR shuffling (CTIR-2 series) were evaluated in 11-point, 5-fold dilution series with a top concentration of 1500 nM, N.T. = not tested; ^cFold selectivity was calculated as Geometric Mean Fluorescent Intensity (Geo MFI) of ROBO2/Geo MFI of ROBO1 binding. […] Outcomes: results are listed in order of assays listed in the table (left to right), I.A. = Improved Affinity

[3] = target: T1, Terbium (Tb) labeled-SNAP tagged ROBO2 …; assay: HTRF, 5 nM d2-SLIT2-N on Tb-SNAP-ROBO2 HEK293 cells, 1 nM antibody
Method: as §1, with “In” for “Antibodies generated as a result of the affinity maturation campaign were screened by numerous assays for neutralization of SLIT2-N binding, selective binding to ROBO2 over ROBO1, and inhibition of SLIT2-N functional activity (see Table 2). A ROBO2-SLIT2-N homogenous time resolved fluorescence (HTRF) assay was used to identify antibodies that were capable of blocking SLIT2-N binding to ROBO2. In”
HTRF assays were run with 5 nM d2-labeled SLIT2-N and antibodies were added at 1 nM. […] Antibodies derived from chain (Abcs series) or CDR shuffling (CTIR-2 series) were evaluated in 11-point, 5-fold dilution series with a top concentration of 1500 nM, N.T. = not tested; ^cFold selectivity was calculated as Geometric Mean Fluorescent Intensity (Geo MFI) of ROBO2/Geo MFI of ROBO1 binding.

[4] = target: T2, Human ROBO2 overexpressed on HEK293 …; assay: flow cytometry, Geo MFI ROBO2/ROBO1 HEK293 cells, 2.5 µg/ml
Method: as §2, §3

[5] = target: T3, Human ROBO1 RSK mutant overexpressed on HEK293 cells (human, UniProt Q9Y6N7 26-1651); assay: flow cytometry, Geo MFI ROBO1-RSK/ROBO2-KSR HEK293 cells, 2.5 µg/ml
T3 construct: K137R and R139K already in the entry; also called ROBO1-RSK cells
T3 sequence (Q9Y6N7 other isoform, or with tags, fused parts or gaps mutant limits assumed): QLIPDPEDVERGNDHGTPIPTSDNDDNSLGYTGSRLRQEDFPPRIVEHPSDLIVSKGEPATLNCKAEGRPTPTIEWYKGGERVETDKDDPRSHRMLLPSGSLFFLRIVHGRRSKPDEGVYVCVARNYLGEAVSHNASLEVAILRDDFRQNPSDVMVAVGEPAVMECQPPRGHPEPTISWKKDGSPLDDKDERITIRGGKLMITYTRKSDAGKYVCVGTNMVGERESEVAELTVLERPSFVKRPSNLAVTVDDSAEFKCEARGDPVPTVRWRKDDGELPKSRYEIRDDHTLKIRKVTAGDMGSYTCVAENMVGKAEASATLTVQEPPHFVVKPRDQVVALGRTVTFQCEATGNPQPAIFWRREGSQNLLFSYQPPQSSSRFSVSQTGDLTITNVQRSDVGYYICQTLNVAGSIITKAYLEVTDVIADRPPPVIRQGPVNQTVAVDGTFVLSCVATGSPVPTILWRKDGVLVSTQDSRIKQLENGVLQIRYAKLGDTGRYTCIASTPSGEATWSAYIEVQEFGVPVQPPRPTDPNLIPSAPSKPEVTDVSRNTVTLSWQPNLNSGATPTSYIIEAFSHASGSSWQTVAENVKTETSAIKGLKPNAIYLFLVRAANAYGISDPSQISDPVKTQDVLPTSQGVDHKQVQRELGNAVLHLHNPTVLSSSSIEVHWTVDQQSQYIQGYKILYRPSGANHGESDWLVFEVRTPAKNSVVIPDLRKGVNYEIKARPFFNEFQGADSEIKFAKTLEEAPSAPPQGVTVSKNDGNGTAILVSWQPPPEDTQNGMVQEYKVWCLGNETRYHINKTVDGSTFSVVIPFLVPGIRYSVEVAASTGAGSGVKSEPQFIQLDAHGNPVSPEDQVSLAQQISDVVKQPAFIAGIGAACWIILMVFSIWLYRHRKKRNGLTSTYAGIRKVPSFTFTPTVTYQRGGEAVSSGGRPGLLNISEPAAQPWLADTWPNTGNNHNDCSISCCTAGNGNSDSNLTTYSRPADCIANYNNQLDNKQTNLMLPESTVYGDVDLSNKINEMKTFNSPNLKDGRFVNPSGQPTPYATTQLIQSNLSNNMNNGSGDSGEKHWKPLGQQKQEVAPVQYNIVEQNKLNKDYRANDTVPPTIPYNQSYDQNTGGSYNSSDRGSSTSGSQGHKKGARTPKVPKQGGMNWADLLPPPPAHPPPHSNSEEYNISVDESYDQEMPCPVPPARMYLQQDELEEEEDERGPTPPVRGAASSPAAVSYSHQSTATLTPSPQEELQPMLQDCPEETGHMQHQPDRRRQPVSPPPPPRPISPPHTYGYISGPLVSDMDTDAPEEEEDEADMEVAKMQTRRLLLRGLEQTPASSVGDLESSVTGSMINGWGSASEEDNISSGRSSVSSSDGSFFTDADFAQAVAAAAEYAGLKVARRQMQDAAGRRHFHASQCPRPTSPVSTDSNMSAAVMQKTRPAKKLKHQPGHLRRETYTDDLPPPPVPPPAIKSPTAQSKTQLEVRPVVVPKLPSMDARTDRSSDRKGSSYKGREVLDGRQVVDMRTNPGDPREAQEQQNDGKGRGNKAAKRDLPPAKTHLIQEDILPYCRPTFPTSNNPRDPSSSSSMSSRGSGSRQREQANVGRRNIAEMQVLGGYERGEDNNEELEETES

IC50 [1] [nM]	Fold Selectivity for ROBO2/ROBO1 [2] [fold]	HTRF Ratio [3]	Fold Selectivity for ROBO2/ROBO1 [4] [fold]	Fold Selectivity for RSK/KSR [5] [fold]	Binder
0.133	92	6610	–	–	Ab3 (antibody, human IgG1, kappa, V domains shown, full-length human IgG) VH: EVQLVQSGAEVKKPGASVKVSCKASGYTFTGYYMHWVRQAPGQGLEWMGWINPKSGATNFPQKFQGRVTMTRDTSITTAYMDLSRLRSDDTAVYYCARESGDDAFDIWGQGTMVTVSS VL: DIVMTQSPSSLSASVGDRVTITCRASQKISSYLNWYQQKPGKAPKLLIYAASSLQSGVPSRFSGSGSGTDFTLTISSLQPEDFATYYCQQSYSTSFGGGTKVEIKR
0.067	–	4160	35	> 100	CTIR2-6 (antibody, human IgG1, kappa, V domains shown, CDR-shuffled IgG) VH: EVQLVQSGAEVKKPGASVKVSCKASGYTFTGYYMHWVRQAPGQGLEWMGWINPKSGATNFPQKFQGRVTMTRDTSITTAYMDLSRLRSDDTAVYYCARESGDDAFDIWGQGTMVTVSS VL: DIVMTQSPSSLSASVGDRVTITCRASQKISSYLNWYQQKPGKAPKLLIYAASSLQSGVPSRFSGSGSGTDFTLTISSLQPEDFATYYCQQSVGLFFGGGTKVEIKR
0.051	–	2710	3.9	1.3	Abcs50 (antibody, human IgG1, kappa, V domains shown, chain-shuffled IgG) VH: EVQLVQSGAEVKKPGASVKVSCKASGYTFTGYYMHWVRQAPGQGLEWMGWINPKNGDTEFPQKFQGRVTMTRDTSITTAYMDLSRLRSDDTAVYYCARESGDDAFDIWGQGTMVTVSS VL: DIVMTQSPSSLSASVGDRVTITCRASQSISSYLNWYQQKPGKAPKLLIYAASSLQYGVPSRFSGSGSGTDFTLTISSLQPEDFATYYCQQSYSTSFGGGTKVEIKR
0.032	–	2910	15.7	> 100	Abcs12 (antibody, human IgG1, kappa, V domains shown, chain-shuffled IgG; also called Abes12) VH: EVQLVQSGAEVKKPGASVKVSCKASGYTFTGYYMHWVRQAPGQGLEWMGWINPRNGITSFPQKFQGRVTMTRDTSITTAYMDLSRLRSDDTAVYYCARESGDDAFDIWGQGTMVTVSS VL: DIVMTQSPSSLSASVGDRVTITCRASQSISSYLNWYQQKPGKAPKLLIYAASSLQSGVPSRFSGSGSGTDFTLTISSLQPEDFATYYCQQSLELGFGGGTKVEIKR
0.064	–	3540	14.8	> 100	CTIR2-9 (antibody, human IgG1, kappa, V domains shown, CDR-shuffled IgG) VH: EVQLVQSGAEVKKPGASVKVSCKASGYTFTGYYMHWVRQAPGQGLEWMGWINPKSGATNFPQKFQGRVTMTRDTSITTAYMDLSRLRSDDTAVYYCARESGDDAFDIWGQGTMVTVSS VL: DIVMTQSPSSLSASVGDRVTITCRASQKISSYLNWYQQKPGKAPKLLIYAASSLQYGVPSRFSGSGSGTDFTLTISSLQPEDFATYYCQQSVGLFFGGGTKVEIKR
0.04	–	3920	2.3	1.4	CTIR2-10 (antibody, human IgG1, kappa, V domains shown, CDR-shuffled IgG) VH: EVQLVQSGAEVKKPGASVKVSCKASGYTFRGYAMHWVRQAPGQGLEWMGWINPRSGVTEFPQKFQGRVTMTRDTSITTAYMDLSRLRSDDTAVYYCARESGDDAFDIWGQGTMVTVSS VL: not shown
0.055	–	3530	2.3	2.5	CTIR2-13 (antibody, human IgG1, kappa, V domains shown, CDR-shuffled IgG) VH: EVQLVQSGAEVKKPGASVKVSCKASGYTFRGYAMHWVRQAPGQGLEWMGWIDPRTGLTKFPQKFQGRVTMTRDTSITTAYMDLSRLRSDDTAVYYCARESGDDAFDIWGQGTMVTVSS VL: DIVMTQSPSSLSASVGDRVTITCRASQKISSYLNWYQQKPGKAPKLLIYAASSLQYGVPSRFSGSGSGTDFTLTISSLQPEDFATYYCQQSYSTSFGGGTKVEIKR
0.036	–	3540	5.1	6.7	Abcs5 (antibody, human IgG1, kappa, V domains shown, chain-shuffled IgG) VH: EVQLVQSGAEVKKPGASVKVSCKASGYTFTGYYMHWVRQAPGQGLEWMGWINPKNGDTEFPQKFQGRVTMTRDTSITTAYMDLSRLRSDDTAVYYCARESGDDAFDIWGQGTMVTVSS VL: DIVMTQSPSSLSASVGDRVTITCRASQSISSYLNWYQQKPGKAPKLLIYAASSLQSGVPSRFSGSGSGTDFTLTISSLQPEDFATYYCQQSLELGFGGGTKVEIKR
